Data published in US8409833B2 (Hokko Chemical Industry Co., Ltd., priority 2003, dated 2013).

B1: ydgJ gene: recombinant scyllo-inositol dehydrogenase, ydgJ gene product of Escherichia coli K12 ATCC10798, SEQ ID NO: 2 (protein, listed as Escherichia coli)
chain: MSDNIRVGLIGYGYASKTFHAPLIAGTPGQELAVISSSDETKVKADWPTVTVVSEPKHLFNDPNIDLIVIPTPNDTHFPLAKAALEAGKHVVVDKPFTVTLSQARELDALAKSLGRVLSVFHNRRWDSDFLTLKGLLAEGVLGEVAYFESHFDRFRPQVRDRWREQGGPGSGIWYDLAPHLLDQAITLFGLPVSMTVDLAQLRPGAQSTDYFHAILSYPQRRVILHGTMLAAAESARYIVHGSRGSYVKYGLDPQEERLKNGERLPQEDWGYDMRDGVLTRVEGEERVEETLLTVPGNYPAYYAAIRDALNGDGENPVPASQAIQVMELIELGIESAKHRATLCLA
B2: C58 Atu4375 gene: recombinant scyllo-inositol dehydrogenase, Atu4375 gene product of Agrobacterium tumefaciens C58 ATCC33970, SEQ ID NO: 4 (protein)
chain: MSSATKKFDSRRIRLGMVGGGQGAFIGAVHRIAARLDDRYELVAGALSSDPARAAASATLLGIAPERSYASFEDMAATEAGREDGIEAVAIVTPNHLHFAPSKAFLEAGIHVICDKPVTATLEEAKALAGIVRASDSLFVLTHNYTGYAMLRQMREMIAEGAIGKLRHVQAEYAQDWLTEAVEKTGAKGAEWRTDPSRSGAGGAIGDIGTHAFNAAAFVTGEIPSSLYADLTSFVPGRQLDDSANILLRYDSGAKGMLWASQIAVGNENALSLRVYGDKGGLEWHHRVPDELWFTPYGEPKRLITRNGAGAGAAANRVSRVPSGHPEGYLEGFATIYREAADAIIAKREGETAAGEVIYPGMEDGLAGLAFIDAAVRSSQTSTWVGIDI
modifications: Agrobacterium tumefacience
B3: C58 Atu3234 gene: recombinant scyllo-inositol dehydrogenase, Atu3234 gene product of Agrobacterium tumefaciens C58 ATCC33970, SEQ ID NO: 6 (protein)
chain: MAIEGKTTDVANKRIRLGMVGGGSGAFIGGVHRMAARLDNRFDLVAGALSSTPEKSLASGRELGLDSERCYGSFEEMAEKEALREDGIEAVAIVTPNHVHYPAAKAFLERGIHVICDKPLTSNLEDAKKLKDVADKADALFILTHNYTGYPMVRHARELVEAGALGNIRLVQMEYPQDWLTEAVEQTGAKQAVWRTDPAQSGVGGSTGDIGTHAYNLGCFISGLEADELAADVHTFVEGRRLDDNAHVMMRFKPKGGKQPARGMLWCSQVAVGHENGLKIRLYGDKAGLEWTQADPNYLWFTKLGEPKQLITRGGAGAGAAAARVTRIPSGHPEGYLEAFATIYTEAAHAIEARRTGSALDKAVIYPTVDDGVKGVAFVTACIESGKKNGGWVKL
modifications: Agrobacterium tumefacience

Assay: Km values of scyllo-inositol dehydrogenase for scyllo-inosose (reciprocal plot)
Type: biochemical
Conditions: NADPH, pH 8.0, 36° C.
Experimental: The determination is carried out such that the Km value is calculated after reciprocal plot according to the general method.
After the reaction, […] of water was immediately added thereto, and the absorbance at 340 nm was measured. From the blank value of a test solution prepared by using water instead of the enzyme solution, the decrease in the absorbance at 340 nm was measured. The enzyme solution was diluted as required. The Km values were calculated by the reciprocal plot.

Molecule | Km
B1 | 3.9 mM
B2 | 9.2 mM
B3 | 2.6 mM

Assay: Effects of heavy metal on scyllo-inositol dehydrogenase
Type: biochemical
Conditions: 2 mM heavy metal in reaction solution; no addition group = 100%
Experimental: Effects by the heavy metals can be confirmed by: mixing 5 μl of a reaction solution (200 mM Tris buffer of pH 8.0 containing 2% of NADPH, 1% of scyllo-inosose, and 2 mM metal salt) and 5 μl of an enzyme solution; allowing the mixture to react at 36° C. for 30 minutes; adding 500 μl of water immediately after the completion of the reaction; determining the absorbance at 340 nm; and determining a decrease in the absorbance at 340 nm with respect to a blank value of a test solution containing water instead of the enzyme solution. The term “activated” means the case where the enzymatic activity of a fraction added with 1 mM of a heavy metal is 105% or more, preferably 120% or more, with respect to the enzymatic activity of a fraction added with no heavy metal as 100%. On the other hand, the term “inhibited” means the case where the enzymatic activity of the fraction added with 1 mM of a heavy metal is 95% or less, preferably 70% or less, with respect to the enzymatic activity of the fraction added with no heavy metal as 100%.
The effects of heavy metal on the enzymes of the present invention were determined by: mixing 5 μl of a reaction solution (200 mM Tris buffer (pH 8.0), 2% of NADPH, 1% of scyllo-inosose, and 2 mM of a heavy metal) with 5 μl of an enzyme solution; and allowing the mixture to react at 36° C. for 30 min. After the reaction, 500 μl of water was immediately added thereto, and the absorbance at 340 nm was measured. From the blank value of a test solution prepared by using water instead of the enzyme solution, the decrease in the absorbance at 340 nm was measured. The enzyme solution was diluted as required. CaCl2, CoCl2, ZnSO4, MgSO4, SnCl2, NiCl2, and MnSO4 were used as metallic salts. The activity of the no addition group was defined as 100%, and the relative activities were compared. […] Most of the enzymes were inhibited in the presence of Zn^2+ ion, in contrast, the enzyme derived from Bacillus subtilis 168 was activated in the presence of Zn^2+ ion.

Molecule | Heavy metal effects: activation | Heavy metal effects: strong inhibition
B1 | Co | Sn, Zn
B2 | Co, Mn | Sn, Zn
B3 | Co, Mn, Ca | Sn, Zn

Assay: Optimum pH of scyllo-inositol dehydrogenase
Type: biochemical
Conditions: 200 mM phosphate buffer (pH 5.0 to 9.0); 90% or more of the maximum activity
Experimental: The optimum pH can be confirmed by: mixing 5 μl of a reaction solution (200 mM […] of pH 5.0 to 9.0 containing 2% of NADPH, and 1% of scyllo-inosose) and 5 μl of an enzyme solution; allowing the mixture to react at 36° C. for 30 minutes; adding 500 μl of water immediately after the completion of the reaction; determining the absorbance at 340 nm; and determining a decrease in the absorbance at 340 nm with respect to a blank value of a test solution containing water instead of the enzyme solution. The term “optimum pH” means a pH at which the enzyme has 90% or more of the maximum activity. The enzyme of the present invention can be divided depending on, for example, a range of the optimum pH into groups each having: an optimum pH in an acidic region (optimum pH is pH of 5.5 to 6.5); an optimum pH in a neutral region (optimum pH is pH of 6.5 to 7.5 or 6.5 to 8.5); and an optimum pH in an alkaline region (optimum pH is pH of 7.0 to 8.5 or 7.5 to 9.0).
The optimum pH of the enzymes of the present invention was determined by: mixing 5 μl of a reaction solution (200 mM phosphate buffer (pH 5.0 to 9.0), 2% of NADPH, and 1% of scyllo-inosose) with 5 μl of an enzyme solution; and allowing the mixture to react at 36° C. for 30 min. After the reaction, 500 μl of water was immediately added thereto, and the absorbance at 340 nm was measured. From the blank value of a test solution prepared by using water instead of the enzyme solution, the decrease in the absorbance at 340 nm was measured. The enzyme solution was diluted as required.

Molecule | Optimum pH
B1 | pH 7.5-9.0
B2 | pH 6.5-8.5
B3 | pH 7.0-8.5

Assay: Substrate specificity of scyllo-inositol dehydrogenase (relative activity of oxidation, absorbance at 545 nm)
Type: biochemical
Conditions: relative to reactivity to scyllo-inositol, NADP^+, pH 8.0, 25° C.
Experimental: Examples of an inositol isomer include scyllo-inositol (SI), myo-inositol (MI), D-chiro-inositol (DCI), L-chiro-inositol (LCI), epi-inositol (EI), muco-inositol (MuI), allo-inositol (AI), and neo-inositol (NI).
The inositol isomers include scyllo-inositol (SI), myo-inositol (MI), D-chiro-inositol (DCI), L-chiro-inositol (LCI), epi-inositol (EI), muco-inositol (MuI), allo-inositol (AI), and neo-inositol (NI).
The reaction rate was calculated from the absorbance increments at the respective times.

Molecule | Substrate specific Relative activity (20 to 70%) | Substrate specific Relative activity (70% or more) | Substrate specific Relative activity (less than 20%)
B1 | LCI, EI, MuI | SI, MI, DCI | AI, NI
B2 | LCI, MuI | SI, MI, DCI, EI | AI, NI
B3 | MuI | SI, MI, DCI, EI, LCI | AI, NI

Assay: Enzyme reaction product of scyllo-inosose reduction measured by HPLC
Type: biochemical
Conditions: 10 mg scyllo-inosose, 40 mg NADPH, 10 U enzyme, 36° C., 4 hours; myo-inositol not detected
Experimental: Meanwhile, the enzyme reaction product was measured as follows: 10 mg of scyllo-inosose, 40 mg of NADPH, and 10 U of the enzyme were allowed to react in 1.0 ml of 100 mM Tris buffer (pH 8.0) at 36° C. for 4 hours, and a heat treatment was performed at 80° C. for 10 min, followed by cooling. Then, 100 μl of a strong base cation exchange resin, 100 μl of a strong acid anion exchange resin, and 10 mg of activated carbon were added, and the mixture was stirred and centrifuged. Then, the supernatant was diluted 2-fold, and measurement was performed by HPLC (Shodex Asahipak NH2P-50 4E Φ 4.6×250 mm: Shodex) using an RI detector under the condition of a column temperature of 40° C. and a mobile phase flow rate of 1.5 ml (80% acetonitrile). […] Meanwhile, the sequence of the ydgJ gene is shown in SEQ ID NO: 1, and the amino acid sequence corresponding thereto is shown in SEQ ID NO: 2.
Meanwhile, enzyme reaction product was measured as follows: 10 mg of scyllo-inosose, 40 mg of NADPH, and 10 U of the enzyme were allowed to react in 1.0 ml of 100 mM Tris buffer (pH 8.0) at 36° C. for 4 hours, and a heat treatment was performed at 80° C. for 10 min, followed by cooling. Then, 100 μl of a strong base cation exchange resin, 100 μl of a strong acid anion exchange resin, and 10 mg of activated carbon were added, and the mixture was stirred and centrifuged. Then, the supernatant was diluted 2-fold, and measurement was performed by HPLC (Shodex Asahipak NH2P-50 4E Φ 4.6×250 mm: Shodex) using an RI detector under conditions of a column temperature of 40° C. and a mobile phase flow rate of 1.5 ml (80% acetonitrile).

Molecule | share of scyllo-inositol in the product of scyllo-inosose reduction
B1 | 100%
B2 | 100%
B3 | 100%

Same assay, conditions: SIS: scyllo-inosose, SI: scyllo-inositol

Molecule | Reduction reaction product
B1 | Only SIS → SI
B2 | Only SIS → SI
B3 | Only SIS → SI
